Assay results as given in the supplement of paper PMC10567573.

B1: TBX5 (parent)
chain: YQNHKITQLKIENNPFAKGFRGSD
B2: ZNF263 (parent)
chain: RTHTGEKPYKCTLCGENFSHRSNL

Variants of: B1
Test: protein stability index of a GFP-peptide fusion (GPS, HEK-293T) (PSI 1-6); higher = more stable
Details: c terminus: a fixed tail appended
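Further: lentivirally expressed fusions sorted by FACS into six bins by GFP to DsRed ratio, PSI derived from sequencing read proportions per bin multiplied by bin number.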

Protein stability index, by site and new letter:
P15: W 1.87; C 2.34; M 2.65; Q 2.32; G 2.37; K 2.33; V 2.38; Y 2.34
D24: A 2.43; N 2.57; T 2.11
N13: P 2.25; D 2.48; R 2.46; S 2.37; F 1.94; Q 2.55; K 2.34
G19: M 2.29; L 2.05; E 3.99; Q 3.1; A 2.75; Y 2.36; W 1.88; I 1.85; N 2.19; C 1.74
N3: T 2.42; L 2.07; S 2.3; C 1.75; P 2.57; R 2.44; D 2.71; Y 1.99; G 2.26
I11: K 2.52; S 2.96; H 2.33; Y 2.83; D 3.27
K18: Y 2.12; L 2.06; N 2.23; S 2.31
Q8: P 2.41; Y 1.57; T 2.19; F 1.7; A 2.79
A17: Y 2.18; T 2.43; G 2.27; I 2.09; E 3.12; R 2.12; F 1.95
R21: H 2.52; P 2.74; A 2.32; Q 2.57; K 2.64
Y1: V 3.22; W 2.92; E 3.58; G 3.64; N 3.35; F 2.48; P 3.52; H 3.79; Q 3.68
N14: Q 2.94; R 2.58; Y 1.89; W 1.59; M 2.05
I6: L 2.45; C 2.36; Y 2.53; G 2.3; P 2.8; R 2.79
K10: D 2.68; A 2.91; F 1.81
G22: I 2.48; D 2.56; N 2.4; R 2.12; F 1.74
F20: M 2.69; P 2.88; G 2.98; T 3.04
F16: Q 3.44; K 3.31; G 2.83; N 3.48
Q2: G 2.54; K 2.85; Y 2.92; L 2.84; F 2.75; N 3.48; P 2.63; I 2.19
K5: G 2.57; E 2.98; M 2
L9: P 2.84; R 3.54; W 1.71; I 2.73; G 2.35; N 3.01
T7: D 2.69; G 2.12; E 3.32; A 2.15; K 3.31
E12: G 2.01; R 1.98; P 2.63; Y 1.69
H4: R 2.77; N 2.87; K 2.4; L 3.06; M 2.49; D 3.52; V 2.68
S23: E 2.42; I 2.12; D 2.83; Q 2.71; R 2.63; K 2.64; G 2.59; M 2.18

Variants of: B2
Test: as above
Details: c terminus: a fixed tail appended

Protein stability index of substitutions, site by site:
C14: Y 2.52; T 3.37; V 3.3; W 2.39
R21: N 2.19; P 2.08; Y 1.96; G 2.3; S 1.96; H 2.21; F 2.01; L 1.64; C 2.46; A 2.59; T 2.11; E 2.69; M 2.22; K 2.13; V 1.98; D 3.15; Q 1.94; W 1.68; I 1.92
L24: V 2.49; P 2.33; S 2.52; R 1.95; N 2.37; C 4; W 1.82; D 2.39; A 2.3; H 2.42; F 1.59; E 2.43; T 2.4; Q 2.33; K 2.63; G 2.82; I 2.15; Y 1.78; M 1.91
N17: Y 1.91; T 1.6; A 1.99; C 2.25; H 2.15; R 2.09; E 2.4; D 1.7; I 2.26; K 2.26; L 1.98; P 1.81; F 2.07; Q 1.91; M 1.76; V 1.92; S 2.02; G 2.12; W 2.42
N23: F 2.23; S 2.05; M 2.03; H 1.96; L 1.69; I 2.32; V 1.94; T 1.94; R 2.17; P 2.6; A 2.28; Y 1.96; Q 1.91; E 2.31; D 1.88; G 2.06; W 2.55; K 2.17; C 3.48
G15: Q 2.15; M 1.9; F 2.17; I 2.13; K 2.13; L 1.97; V 1.57; A 1.68; R 1.75; W 1.84; D 2.1; C 1.59; S 1.62; E 1.76; N 1.87; P 2.57; Y 1.82; T 1.79; H 2.23
E16: Q 2.46; V 2.17; F 2.3; P 1.94; S 1.99; Y 2.08; K 1.59; H 1.87; I 1.83; N 1.77; R 2.03; G 1.68; W 1.77; D 1.93; A 1.8; T 2.51; C 1.98; L 1.5; M 1.86
S22: I 1.9; H 2.4; M 2; D 2.11; Y 1.63; L 1.94; Q 2.01; W 1.44; A 1.83; K 2.46; P 1.79; T 1.92; G 2.14; R 2.4; E 2.23; F 2; V 1.91; N 2.33; C 3.19
F18: M 1.82; Q 2.1; A 1.86; W 2.07; K 1.74; Y 1.91; C 3.74; E 2.22; T 1.95; D 2.27; V 1.88; H 2.76; S 2.37; L 1.96; N 2.09; I 2.17; P 2.19; G 2.29; R 2.15
H20: I 2.04; Q 2.26; P 1.82; L 2.03; N 1.95; F 1.67; K 1.8; D 1.84; R 1.94; V 1.89; E 2.04; S 2.32; M 1.98; Y 2.13; W 2.28; A 2.06; C 2.03; T 2.11; G 1.92
S19: A 2.21; C 2.06; G 1.96; H 1.48; F 2.12; K 1.66; N 2.08; V 2.51; Y 1.97; R 2.01; T 1.91; Q 2.09; L 1.81; D 2.21; I 2.81; M 1.96; P 1.77; W 1.74; E 2.29
